Laboratory results as given in patent US20090202556A1 (Kyowa Kirin, published 2009).

Tests used:
[1] = target: T1, human CLDN4 (Claudin-4) expressed by human cancer cell lines (Capan-2, HPAF-II, MCF7, HT-29, SW480, 22Rv1, DU … (human, UniProt O14493 1-209)); experiment: FCM on live cancer cell lines, 5 µg/ml
T1 construct: Endogenous protein on cell lines; MCF7 is said to express both CLDN3 and CLDN4; also called CLDN4 expressed in breast cancer cells, colorectal cancer cells and prostate cancer cells
T1 sequence: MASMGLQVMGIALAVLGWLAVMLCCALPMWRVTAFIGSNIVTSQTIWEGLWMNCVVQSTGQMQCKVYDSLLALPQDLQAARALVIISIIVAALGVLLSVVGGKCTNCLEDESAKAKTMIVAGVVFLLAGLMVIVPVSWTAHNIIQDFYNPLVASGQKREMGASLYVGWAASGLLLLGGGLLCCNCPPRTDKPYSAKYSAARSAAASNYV
Procedure: (§1) Human pancreatic cancer cell lines Capan-2 and HPAF-II human lymphoma cell line Daudi (ATCC CCL-213), human breast cancer cell line MCF7 (ATCC HTB-22), human colorectal cancer cell lines HT-29 (ATCC HTB-38) and SW480 (ATCC CCL-228) and human prostate cancer cell line s 22Rv1 (ATCC CRL-2505), DU 145 (ATCC HTB-81) and PC-3 (ATCC CRL-1435) were cultured for 3 to 4 days, and adhered cells were peeled off using 0.02% EDTA solution (manufactured by Nacalai Tesque) to recover the cells. The thus recovered cells were washed with PBS and, in order to prevent nonspecific adsorption of antibodies, blocked at ice temperature for 30 minutes using BSA-PBS. The cells were dispensed at 1 to 5×10⁵ cells/100 μl BSA-PBS into a 96-well U bottom plate and centrifuged (1,500 rpm, 5 minutes), the supernatant was removed and then a mouse anti-serum to be immunized, a culture supernatant of hybridoma KM3900 (8.6 μg/ml), anti-CLDN4 monoclonal antibodies KM3900 and KM3907 diluted to 5 μg/ml or a mouse IgG2a isotype control (manufactured by DAKO) was dispensed as the primary antibody at 100 μl/well and allowed to react at ice temperature for 60 minutes. […] After the reaction, the cells were washed once with BSA-PBS and suspended in PBS, and the fluorescent intensity was measured by FCM (manufactured by Beckman Coulter).

[2] = target: T1, human CLDN4 (Claudin-4) expressed by …; experiment: FCM on live Capan-2 and HPAF-II cells, 8.6 µg/ml
Procedure: as §1, with “Coulter). […]” for “Coulter).”

B1: anti-CLDN4 monoclonal antibody KM3907 produced by hybridoma KM3907 (FERM BP-10885) (antibody, mouse IgG2a, V domains shown)
VH: QVQLQQSGPELVKPGASVKISCKASGYAISTSWMNWVKQRPGKGLEWIGRINPGDGNTNYNGKFMAKATLTADKPSSTAYMQLSSLTSEDSAVYFCTRGDRWSGAMDYWGQGTSVTVSS
VL: GNVLTQSPAIMSASPGEKVTMTCRASSSVSSSYLHWYQQKSGASPKLWIYSTSNLASGVPVRFSGSGSGTSYSLTISSVEAEDAATYYCQQYSGFPLTFGAGTKLELK
- binding result [1]: binds

B2: anti-CLDN4 monoclonal antibody KM3900 produced by hybridoma KM3900 (FERM BP-10751) (antibody, V domains shown)
VH: EVQLQQSGPELVKPGASVKISCKASGYTFTDYYMNWVKQSHGKSLEWIGDVVPNNGVPTYNQKFKGKATLTVDKSSSTAYMELRSLTSEDSAVYYCARPHYYYAGRSGAMDYWGQGTSVTVSS
VL: QIVLTQSPAIMSASLGERVTMTCTASSTVSSTYLHWYQQKPGSSPKLWIYSTSNLASGVPARFSGSGSGTSYSLTISSMEAEDAATYYCHQYHRSPPTFGGGTKLEIK
notes: Used as hybridoma culture supernatant (8.6 µg/ml) or purified antibody (5 µg/ml); also called anti-CLDN4 mouse antibody KM3900
- binding result [2]: binds
